Data: paper PMC7220375

Target: full-length t-SNARE complex (mouse His6-SNAP25B, residues 1-206 and rat Syntaxin1A, residues 1-288) (mouse | rat) (UniProt P60879)
Sequence (P60879 whole entry, chain 1 of 2, the tested form may be a part): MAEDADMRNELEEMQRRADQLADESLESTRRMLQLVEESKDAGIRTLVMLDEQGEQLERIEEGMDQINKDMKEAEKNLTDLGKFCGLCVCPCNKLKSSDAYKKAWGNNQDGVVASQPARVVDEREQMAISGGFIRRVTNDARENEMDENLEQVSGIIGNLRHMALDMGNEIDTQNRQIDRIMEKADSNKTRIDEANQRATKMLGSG
Sequence (chain, as listed by the source, chain 2 of 2): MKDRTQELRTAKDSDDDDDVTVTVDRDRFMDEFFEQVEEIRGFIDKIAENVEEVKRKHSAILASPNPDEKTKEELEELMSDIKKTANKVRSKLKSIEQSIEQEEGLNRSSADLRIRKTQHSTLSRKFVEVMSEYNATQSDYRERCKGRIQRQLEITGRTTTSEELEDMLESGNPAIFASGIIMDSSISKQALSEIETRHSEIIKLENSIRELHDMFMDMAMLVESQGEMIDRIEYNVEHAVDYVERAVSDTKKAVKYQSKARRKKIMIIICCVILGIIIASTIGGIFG

Syt1^LLQQ (rat Synaptotagmin1-His6, residues 57-421, L387Q/L394Q) (from UniProt P21707 57-421) (domain or fragment)
share of clamped vesicles that stay unfused after Ca2+ (1 mM), normal VAMP2, with 2 µM Cpx (tripartite interface of Syt1 with Cpx and SNAREs): 25%
